Experimental data as given in IntAct's records for PubMed 23260139.

Target: vinc_mouse Vcl (UniProt Q64727)
Sequence (Q64727 whole entry): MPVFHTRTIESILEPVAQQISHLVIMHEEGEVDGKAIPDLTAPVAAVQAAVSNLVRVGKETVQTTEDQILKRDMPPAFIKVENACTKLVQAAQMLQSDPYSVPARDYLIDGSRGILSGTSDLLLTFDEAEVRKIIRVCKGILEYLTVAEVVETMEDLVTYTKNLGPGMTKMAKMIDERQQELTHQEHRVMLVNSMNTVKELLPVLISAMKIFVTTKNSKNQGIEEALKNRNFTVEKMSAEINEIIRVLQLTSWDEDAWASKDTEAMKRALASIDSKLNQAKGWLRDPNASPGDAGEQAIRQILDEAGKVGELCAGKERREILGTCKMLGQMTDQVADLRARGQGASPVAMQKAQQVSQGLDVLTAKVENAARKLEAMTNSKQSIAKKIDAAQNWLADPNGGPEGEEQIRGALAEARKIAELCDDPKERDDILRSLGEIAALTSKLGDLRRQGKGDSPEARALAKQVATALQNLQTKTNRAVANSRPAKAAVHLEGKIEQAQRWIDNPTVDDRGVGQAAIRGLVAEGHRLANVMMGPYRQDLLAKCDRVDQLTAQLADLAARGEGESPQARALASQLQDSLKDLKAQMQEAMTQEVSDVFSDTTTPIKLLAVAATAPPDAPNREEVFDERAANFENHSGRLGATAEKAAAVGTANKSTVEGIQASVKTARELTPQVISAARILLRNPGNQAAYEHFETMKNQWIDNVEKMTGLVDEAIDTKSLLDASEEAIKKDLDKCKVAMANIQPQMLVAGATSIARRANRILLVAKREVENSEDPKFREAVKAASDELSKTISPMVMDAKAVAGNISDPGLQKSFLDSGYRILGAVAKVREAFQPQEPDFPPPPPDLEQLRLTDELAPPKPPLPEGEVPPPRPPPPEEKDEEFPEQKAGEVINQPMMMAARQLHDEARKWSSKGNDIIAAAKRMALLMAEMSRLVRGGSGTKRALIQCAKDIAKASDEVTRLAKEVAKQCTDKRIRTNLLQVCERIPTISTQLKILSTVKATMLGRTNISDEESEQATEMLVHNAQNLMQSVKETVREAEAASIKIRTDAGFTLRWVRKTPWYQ

Paxillin (Gallus gallus (Chicken)), P49024 E151Q, sequence (P49024 whole entry E151Q): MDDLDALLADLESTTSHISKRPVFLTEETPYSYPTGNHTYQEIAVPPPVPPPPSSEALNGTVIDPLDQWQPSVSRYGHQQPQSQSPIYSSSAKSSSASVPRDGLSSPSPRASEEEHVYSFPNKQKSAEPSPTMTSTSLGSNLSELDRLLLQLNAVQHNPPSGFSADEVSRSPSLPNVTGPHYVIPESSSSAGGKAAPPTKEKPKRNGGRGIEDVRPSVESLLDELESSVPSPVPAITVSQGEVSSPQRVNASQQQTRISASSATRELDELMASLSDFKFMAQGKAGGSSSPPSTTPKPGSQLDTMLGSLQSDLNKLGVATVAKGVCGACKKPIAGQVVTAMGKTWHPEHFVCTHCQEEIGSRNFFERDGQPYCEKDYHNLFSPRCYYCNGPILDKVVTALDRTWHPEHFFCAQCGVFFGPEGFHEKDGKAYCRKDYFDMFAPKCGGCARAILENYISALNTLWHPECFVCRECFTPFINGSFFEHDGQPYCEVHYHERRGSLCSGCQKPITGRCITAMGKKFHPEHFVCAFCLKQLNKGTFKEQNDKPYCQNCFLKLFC

Paxillin (Gallus gallus (Chicken)), P49024 E151Q
effect of a mutation on the interaction: decreasing interaction strength
